Source: publication PMC6141585

Molecular target: actin filaments in growth cones of cultured hippocampal neurons (mouse (endogenous in cultured hippocampal neurons))
Assay: FRET or BRET; acceptor photobleaching FRET in growth cones of fixed 2 DIV hippocampal neurons; donor GFP or GFP-tagged construct, acceptor TRITC-phalloidin on actin filaments

FRET efficiency: 52%
Substance: MAP6-E-GFP (rat MAP6-E fused to GFP) (from UniProt Q63560 1-614) (natural protein)
